Assay results as given in patent US20230110188A1 (ARGENX IIP, published 2023).

Tests used:
[1] = target: T1, Human MuSK (R&D Systems, cat. 10189-MK, histidine tag) (human, UniProt O15146 24-495); test: SPR (Biacore), MuSK-coated chip presaturated with 500 nM 3D10a (competitor)
T1 construct: Bought protein; also called human monomeric MuSK-6xhis; not shown: histidine tag (6xhis)
T1 sequence: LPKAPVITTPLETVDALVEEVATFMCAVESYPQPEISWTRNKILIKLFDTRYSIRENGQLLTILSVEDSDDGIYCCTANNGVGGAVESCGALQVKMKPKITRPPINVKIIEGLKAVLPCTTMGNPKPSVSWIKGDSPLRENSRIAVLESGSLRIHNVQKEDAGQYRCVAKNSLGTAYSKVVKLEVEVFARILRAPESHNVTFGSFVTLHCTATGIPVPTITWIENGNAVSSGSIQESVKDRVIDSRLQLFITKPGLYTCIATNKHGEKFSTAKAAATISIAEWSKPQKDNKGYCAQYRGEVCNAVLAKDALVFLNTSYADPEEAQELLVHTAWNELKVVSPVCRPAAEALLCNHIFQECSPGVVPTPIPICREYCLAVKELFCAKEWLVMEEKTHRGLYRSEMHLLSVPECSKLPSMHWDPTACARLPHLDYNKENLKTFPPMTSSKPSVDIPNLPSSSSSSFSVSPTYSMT
Description: (§1) A chip was coated with ˜5000 RU of human MuSK (Lot nr DHUCO 11908A, batch nr 1089_MK). In a first experiment the saturating concentration of the pre-leads was determined. This is the concentration where the amplitude of a specific pre-lead doesn't increase anymore when additional pre-lead is injected on the immobilized MuSK.

[2] = target: T1, Human MuSK (R&D Systems, cat. 10189-MK, …); test: SPR (Biacore), antibody captured on anti-hFc chip; 0.3125 nM; dissociation pH 7.4
Source text: (§2) In order to study pH dependent binding of our antibodies to MuSK, the Biacore was used with the same setup as described in the paragraph entitled “Binding affinity for mouse, human and rhesus monkey recombinant MuSK in Biacore”. 6. […] For the other antibodies there is no real difference observed between pH 7.4 and 5.5.

hMuSK delta 1-2-3 (Fz) = target: T2, hMuSK delta 1-2-3 (Fz) (human, UniProt O15146); test: ELISA, hMuSK delta 1-2-3 (Fz) captured on anti-FLAG coat, antibody titrated, anti-human Fc HRP detection, OD450
T2 construct: truncated extracellular domain, captured by anti-FLAG
T2 sequence (truncated extracellular domain, looked up): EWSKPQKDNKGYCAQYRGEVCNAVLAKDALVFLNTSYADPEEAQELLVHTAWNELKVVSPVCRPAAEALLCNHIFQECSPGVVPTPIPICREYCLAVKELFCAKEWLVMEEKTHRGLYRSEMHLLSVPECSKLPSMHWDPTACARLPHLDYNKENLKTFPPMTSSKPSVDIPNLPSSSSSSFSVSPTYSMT
Description: (§3) For binding to MuSK domains—An ELISA plate was coated with 0.5 μg/ml of anti-FLAG (M2 clone, Sigma Cat. F3165) and incubated overnight at 4° C. Next, the plate was washed with PBS and blocked with 1×PBS 1% casein for two hours at RT. After washing the plate, human monomeric MuSK FLAG streptavidin (batch 27-6-2019) and truncated MuSK variants (batch 3-9-2019) at 1 μg/ml in PBS where incubated for one hour at RT. After washing the plate, antibodies were diluted in blocking buffer and added to the plate. After a one hour incubation at RT, the plate was washed. Next, detecting antibody was added and incubated for one hour at RT (anti-human Fc HRP (1/5000) (clone 5A9, cat. No. Ab7499, ABCAM)) in blocking buffer. Lastly, the plate was washed with PBS and TMB was added and the reaction was stopped with 0.5 M H2SO4. OD 450 nm was determined by the Tecan Sunrise ELISA plate reader.
(§4) For the MuSK domain binding ELISA, binding of anti-MuSK antibodies to FLAG captured human monomeric MuSK and truncated variants was tested (FIG. 6). 3D9b, 3F6c, 3D10a, 4D3 and 3B5 bound only to full length MuSK, no binding was observed against the truncated MuSK variants. Therefore, we conclude that our antibodies bind to the Ig1 domain.

hMuSK delta 1-2 (Ig3 Fz) = target: T3, hMuSK delta 1-2 (Ig3 Fz) (human, UniProt O15146); test: ELISA, hMuSK delta 1-2 (Ig3 Fz) captured on anti-FLAG coat, antibody titrated, anti-human Fc HRP detection, OD450
T3 construct: truncated extracellular domain, captured by anti-FLAG
T3 sequence (truncated extracellular domain, looked up): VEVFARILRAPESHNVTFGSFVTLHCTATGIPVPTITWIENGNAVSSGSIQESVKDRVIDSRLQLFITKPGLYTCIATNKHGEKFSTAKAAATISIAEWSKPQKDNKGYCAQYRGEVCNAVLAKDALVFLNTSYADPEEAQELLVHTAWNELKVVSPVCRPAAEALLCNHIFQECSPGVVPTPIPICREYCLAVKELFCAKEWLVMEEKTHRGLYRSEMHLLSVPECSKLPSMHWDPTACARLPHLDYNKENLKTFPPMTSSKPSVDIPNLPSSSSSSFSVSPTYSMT
Description: as §3, §4

[3] = target: T1, Human MuSK (R&D Systems, cat. 10189-MK, …); test: SPR (Biacore), MuSK-coated chip, antibody alone (run of first antibody 3D9b)
Description: as §1

[4] = target: T4, human monomeric MuSK FLAG streptavidin (in house produced, batch 27-6-2019) (human, UniProt O15146 24-495); test: epitope binning ELISA (coated anti-MuSK Fab, MuSK, IgG, anti-Fc HRP); competitor: 3D10a
T4 construct: also called full length MuSK; not shown: FLAG and streptavidin tags
T4 sequence: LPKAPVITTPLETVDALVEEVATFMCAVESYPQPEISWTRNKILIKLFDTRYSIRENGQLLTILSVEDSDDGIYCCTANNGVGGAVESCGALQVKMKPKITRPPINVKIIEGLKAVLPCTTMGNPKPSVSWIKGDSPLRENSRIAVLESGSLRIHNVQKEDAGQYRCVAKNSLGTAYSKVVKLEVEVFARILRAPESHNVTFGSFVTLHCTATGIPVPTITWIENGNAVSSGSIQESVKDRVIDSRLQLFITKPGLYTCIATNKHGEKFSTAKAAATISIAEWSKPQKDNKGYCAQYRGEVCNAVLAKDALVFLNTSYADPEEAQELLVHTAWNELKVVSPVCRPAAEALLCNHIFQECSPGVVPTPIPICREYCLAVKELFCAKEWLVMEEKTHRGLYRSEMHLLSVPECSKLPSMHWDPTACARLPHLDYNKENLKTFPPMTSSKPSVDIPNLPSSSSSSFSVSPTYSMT
Description: For epitope binning—An ELISA plate was coated at 1 μg/ml of the anti-MuSK Fabs and incubated overnight at 4° C. Next, the plate was wash with PBS followed by blocking with 1% casein in PBS for one hour. After washing the plate, 1 μg/ml of human monomeric MuSK (in house produced, batch 27-6-2019) was incubated for one hour at RT. The plate was washed and anti-MuSK antibodies at 0.3-10 μg/ml were added to the plate and incubated for one hour at RT. After washing the plate, detection antibody (goat anti-human Fc HRP (Jackson Immunoresearch cat. 109-035-098)) was added at 5000 fold dilution in PBS 0.1% casein. The plate was incubated for one hour at RT and washed with PBS-T. TMB was added and the reaction was stopped by adding H2504. […]
For the epitope binning ELISA, a plate was coated with anti-MuSK Fab and human monomeric MuSK was added after blocking the plate. Next the different antibodies were added and allowed to bind.

[5] = target: T1, Human MuSK (R&D Systems, cat. 10189-MK, …); test: SPR (Biacore), pH 7.4 (summary table, repeats the average of Table 16)
Source text: as §2

B1: 3D10a (antibody, human IgG1, kappa, L234A L235A, V domains shown)
VH: EVQLVESGGGLVKPGGSLRLSCAASGFTFSASTMAWVRQAPGKGLEWVSSVSGDSHHIYYADSLKGRFTISRDNAKNSLYLQMNSLRAEDTAVYYCARERLLRLGVGFDSWGQGTLVTVSS
VL: DIQMTQSPSSLSASVGDRVTITCRASQRISGFVNWYQQKPGKAPKLLIYAASTLQSGVPSRFSGSGSGTDFTLTISSLQPEDFATYYCQQSYSPLYTFGQGTKLEIKR
With B1 the “amplitude of prelead after presaturating MuSK (RU)” value [1] was 56 RU, the “extra amplitude (%)” value [1] was 1.8% and the “normalized extra amplitude (%)” value [1] was 0.2%. The koff [2] was 0.00018 s⁻¹, the binding result (hMuSK delta 1-2-3 (Fz)) was “no binding (tested: log(conc) 4.2 (about 16000 ng/ml))” and the binding result (hMuSK delta 1-2 (Ig3 Fz)) was “no binding (tested: log(conc) 4.2 (about 16000 ng/ml))”. The “amplitude of prelead without presaturating MuSK (RU)” value [3] was 189 RU and the “OD 450 nm” value [4] was 0.049 OD.

B2: 3F6c (antibody, human IgG1, kappa, L234A L235A, V domains shown)
VH: EVQLVESGGGLVKPGGSLRLSCAASGFTFSSYTMDWVRQAPGKGLEWVSSIGSNGDYIYYADSVRGRFTISRDNAKNSLYLQMNSLRAEDTAVYYCARGQLAVAGTHFDYWGQGTLVTVSS
VL: DIQMTQSPSSLSASVGDRVTITCRASQKVNKYVNWYQQKPGKAPKLLIYAASTLQSGVPSRFSGSGSGTDFTLTISSLQPEDFATYYCQQSYSPLSTFGQGTKLEIKR
B2 was tested, and the “amplitude of prelead after presaturating MuSK (RU)” value [1] was 26 RU, the “extra amplitude (%)” value [1] was 1% and the “normalized extra amplitude (%)” value [1] was -0.6%. The koff [2] was 0.00015 s⁻¹, the binding result (hMuSK delta 1-2-3 (Fz)) was “no binding (tested: log(conc) 4.2 (about 16000 ng/ml))” and the binding result (hMuSK delta 1-2 (Ig3 Fz)) was “no binding (tested: log(conc) 4.2 (about 16000 ng/ml))”. For the same binder, the koff [5] was 8e-05 s⁻¹, the “amplitude of prelead without presaturating MuSK (RU)” value [3] was 235 RU and the “OD 450 nm” value [4] was 0.057 OD.

B3: 4D3 (antibody, human IgG1, kappa, L234A L235A, V domains shown)
VH: EVQLVESGGGLVKPGGSLRLSCAASGFTFSSYTMTWVRQAPGKGLEWVSSISSGGHYIYYTDSLKGRFTISRDNAKNSLYLQMNSLRAEDTAVYYCARERLLRLGVGFDFWGQGTLVTVSS
VL: DIQMTQSPSSLSASVGDRVTITCRASQSISGYLNWYQQKPGKAPKLLIYAASTLQSGVPSRFSGSGSGTDFTLTISSLQPEDFATYYCQQSYSALYTFGQGTKLEIKR
With B3 the “amplitude of prelead after presaturating MuSK (RU)” value [1] was 42 RU, the “extra amplitude (%)” value [1] was 1.6% and the “normalized extra amplitude (%)” value [1] was 0%. For the same binder, the koff [2] was 0.00013 s⁻¹, the binding result (hMuSK delta 1-2-3 (Fz)) was “no binding (tested: log(conc) 4.2 (about 16000 ng/ml))” and the binding result (hMuSK delta 1-2 (Ig3 Fz)) was “no binding (tested: log(conc) 4.2 (about 16000 ng/ml))”. For the same binder, the koff [5] was 0.00014 s⁻¹, the “amplitude of prelead without presaturating MuSK (RU)” value [3] was 188 RU and the “OD 450 nm” value [4] was 0.008 OD.

B4: 3D9b (antibody, human IgG1, kappa, L234A L235A, V domains shown)
VH: EVQLVESGGGLVKPGGSLRLSCAASGFTFSTYTMHWVRQAPGKGLEWVSSISSRSAYKYYADSVKGRFTISRDNAKNSLYLQMNSLRAEDTAVYYCARDFFQLGPPRFDSWGQGTLVTVSS
VL: DIQMTQSPSSLSASVGDRVTITCRASQRISSFLNWYQQKPGKAPKLLIYGASNLQSGVPSRFSGSGSGTDFTLTISSLQPEDFATYYCQQSYSPSYTFGQGTKLEIKR
In the case of B4, the “amplitude of prelead after presaturating MuSK (RU)” value [1] is reported as 169 RU, the “extra amplitude (%)” value [1] is reported as 8% and the “normalized extra amplitude (%)” value [1] is reported as 6.4%. The koff [2] was 0.00018 s⁻¹, the binding result (hMuSK delta 1-2-3 (Fz)) was “no binding (tested: log(conc) 4.2 (about 16000 ng/ml))” and the binding result (hMuSK delta 1-2 (Ig3 Fz)) was “no binding (tested: log(conc) 4.2 (about 16000 ng/ml))”. For the same binder, the koff [5] was 0.00012 s⁻¹, the “amplitude of prelead without presaturating MuSK (RU)” value [3] was 3970 RU and the “OD 450 nm” value [4] was 0.06 OD.
